Key:
[1] = test system: T cell clones specific for different gp100 and MART-1 antigens; test: Uptake of MEP protein by DC and presentation to T cell clones (IFN-γ secretion, FIG. 2); format: cell-based, human; details: DC incubated with protein 4 hours
Procedure: DC incubated with MEP-Mel protein were able to specifically stimulate T cell clones reactive to different MEP epitopes of gp100 and MART-1. T cell stimulation was estimated by the amount of IFN-γ secreted to the culture medium (pg/ml).
T cell clones tested: GP 100-209a and 209b specific for gp100 209-217 epitope, GP 100-280 specific for gp100 280-288 epitope, GP 100-154 specific for a gp100 epitope not present in MEP (used as control) and MART-1 specific for the epitope 27-35.
Immature DC were incubated with MEP protein for 4 hours. After DC maturation, dendritic cells were incubated in the presence of T cell clones specific for different gp100 and MART-1 antigens. T cell stimulation was estimated by measuring the interferon gamma (IFN-γ) secretion to the medium. […] A MART-1 specific T cell clone was also found to be stimulated.

[2] = test system: TIL 1383 (A2 restricted tyrosinase epitope 369-377); test: Recognition assay for peptide presentation by DC (IFN-γ release ELISA), TIL 1383; format: cell-based, human
Procedure: Dendritic cells were isolated from cytopheresis MNCs of melanoma patients with the HLA haplotypes HIA-A*0201 and HLA-DRβ1*0401. DC were generated from plastic adherent PBMCs cultured in RPMI with 10% human AB-serum, L-glutamine, penicillin-streptomycin, supplemented with GM-CSF 1000 IU/ml and IL-4 1000 IU/ml. By day 6, immature DC were harvested for electroporation.
2.5-3×10^6 DC were re-suspended in 100 μl nucleofector solution and added to 5 μg of DNA plasmid in 2-mm electrode gap cuvettes. Transfected DC were immediately plated with CM containing GM/IL4 or let mature using TNFα 100 ng/ml and PGE2 1000 ng/ml. GFP-transfected DCs were collected 16-24 hours later for FACS analysis.
DC were pulsed with 1 μg/ml of the relevant peptides at 1×10^6 cells/ml. Stimulants were added after 1 hour incubation without washing the peptide.
TIL 1383 which recognizes the A2 restricted tyrosinase epitope 369-377.
T cell clones were co-incubated with DC in flat 96-well plate for 24 hours. DC were plated immediately after their transfection or pulsing in 6 separated plates, in the presence of GM CSF and IL-4. 1×10^5 T cells were added to 1×10^5 pulsed or transfected DC. In the longitudinal study, T cell clones were added to the transfected/pulsed DC at the following time points: T0=immediately, +12=after 12 hours, 24, 36, 48 and 72 hours. Supernatants were collected after overnight incubation. Interferon gamma release assay was performed to evaluate T cell stimulation using the ELISA method, results are presented in pg/ml.
Lactacystin was added to DC at concentrations of 25 μM and 50 μM, 4 hours post transfection. DC were incubated with lactacystin for 70 minutes and then washed twice.
Responding T cells were added after washing the lactacystin and co-incubated. Supernatents were collected after 20 hours.
For recognition assay of DC epitope presentation, 1×10^5 cells from different T cell clones, that were grown from PBMCs of patients, and were restricted to particular melanoma antigen peptides, were co-incubated with 1×10^5 pulsed or transfected DC, in the presence of GM-CSF and IL-4. T cell clones were added to the transfected/pulsed DC at the following time points: T=0 immediately, T=12, 24, 36, 48, 72 hours. Supernatant was collected after overnight incubation and was subjected to interferon gamma release assay, in order to evaluate the specific T cell activity towards the particular peptide presented by the DC cells.
The results shown in the following tables represent the amount of Interferon-γ (pg/ml) secreted to the culture medium as an index for T cell stimulation.

B1: MEP-mel: melanoma multiepitope polypeptide, SEQ ID NO: 2 or 57; in Tables 2-9 delivered by transfecting DC with pcDNA3-MEP-Mel plasmid (protein)
chain: PGTMGSCRKSYYLEPGPVTVRKSYLIMDQVPFSVRKSYLYMDGTMSQVRKSYLAGIGILTVRKSYYLEPGPVTVALLIMDQVPFSVALLYMDGTMSQVALLLAGIGILTVSSLYLEPGPVTVAAYIMDQVPFSVSSLYMDGTMSQVAAYLAGIGILTV
[1]; MART-1 specific T cell clone
  T cell stimulation (IFN-γ secretion): stimulated
[1]; clone recognizing gp100 epitope 280-288
  T cell stimulation (IFN-γ secretion): also stimulated
[1]; clones 209a and 209b reactive to gp100 epitope 209-217
  T cell stimulation (IFN-γ secretion): highly stimulated
[2]; transfected DC from donor 1, T = 0 hours, TIL 1383
  Interferon-γ secreted to the culture medium: 111 pg/mL
[2]; transfected DC from donor 2, T = 0 hours, TIL 1383
  Interferon-γ secreted to the culture medium: 387 pg/mL
[2]; transfected DC, Lactacystin 0, TIL1383
  Interferon-γ secreted to the culture medium: 229 pg/mL
[2]; transfected DC, Lactacystin 25 μM, TIL1383
  Interferon-γ secreted to the culture medium: 25 pg/mL
[2]; transfected DC, Lactacystin 50 μM, TIL1383
  Interferon-γ secreted to the culture medium: 0 pg/mL
